B1: NIF-1 (NRC Interacting Factor-1), full-length human, untagged (other)
chain: MEENEVESSSDAAPGPGRPEEPSESGLGVGTSEAVSADSSDAAAAPGQAEADDSGVGQSSDRGSRSQEEVSESSSSADPLPNSYLPDSSSVSHGPVAGVTGGPPALVHSSALPDPNMLVSDCTASSSDLGSAIDKIIESTIGPDLIQNCITVTSAEDGGAETTRYLILQGPDDGAPMTSPMSSSTLAHSLAAIEALADGPTSTSTCLEAQGGPSSPVQLPPASGAEEPDLQSLEAMMEVVVVQQFKCKMCQYRSSTKATLLRHMRERHFRPVAAAAAAAGKKGRLRKWSTSTKSQEEEGPEEEDDDDIVDAGAIDDLEEDSDYNPAEDEPRGRQLRLQRPTPSTPRPRRRPGRPRKLPRLEISDLPDGVEGEPLVSSQSGQSPPEPQDPEAPSSSGPGHLVAMGKVSRTPVEAGVSQSDAENAAPSCPDEHDTLPRRRGRPSRRFLGKKYRKYYYKSPKPLLRPFLCRICGSRFLSHEDLRFHVNSHEAGDPQLFKCLQCSYRSRRWSSLKEHMFNHVGSKPYKCDECSYTSVYRKDVIRHAAVHSRDRKKRPDPTPKLSSFPCPVCGRVYPMQKRLTQHMKTHSTEKPHMCDKCGKSFKKRYTFKMHLLTHIQAVANRRFKCEFCEFVCEDKKALLNHQLSHVSDKPFKCSFCPYRTFREDFLLSHVAVKHTGAKPFACEYCHFSTRHKKNLRLHVRCRHASSFEEWGRRHPEEPPSRRRPFFSLQQIEELKQQHSAAPGPPPSSPGPPEIPPEATTFQSSEAPSLLCSDTLGGATIIYQQGAEESTAMATQTALDLLLNMSAQRELGGTALQVAVVKSEDVEAGLASPGGQPSPEGATPQVVTLHVAEPGGGAAAESQLGPPDLPQITLAPGPFGGTGYSVITAPPMEEGTSAPGTPYSEEPAGEAAQAVVVSDTLKEAGTHYIMATDGTQLHHIELTADGSISFPSPDALASGAKWPLLQCGGLPRDGPEPPSPAKTHCVGDSQSSASSPPATSKALGLAVPPSPPSAATAASKKFSCKICAEAFPGRAEMESHKRAHAGPGAFKCPDCPFSARQWPEVRAHMAQHSSLRPHQCSQCSFASKNKKDLRRHMLTHTKEKPFACHLCGQRFNRNGHLKFHIQRLHSPDGRKSGTPTARAPTQTPTQTIILNSDDETLATLHTALQSSHGVLGPERLQQALSQEHIIVAQEQTVTNQEEAAYIQEITTADGQTVQHLVTSDNQVQYIISQDGVQHLLPQEYVVVPEGHHIQVQEGQITHIQYEQGAPFLQESQIQYVPVSPGQQLVTQAQLEAAAHSAVTAVADAAMAQAQGLFGTDETVPEHIQQLQHQGIEYDVITLADD
modifications: ^35S-L-methionine label in the in vitro binding assay
B2: LexA-hRARα LBD (LexA fusion of the ligand binding domain of hRARα) (receptor, UniProt P0A7C2 1-202, looked up)
chain: MKALTARQQEVFDLIRDHISQTGMPPTRAEIAQRLGFRSPNAAEEHLKALARKGVIEIVSGASRGIRLLQEEEEGLPLVGRVAAGEPLLAQQHIEGHYQVDPSLFKPNADFLLRVSGMSMKDIGIMDGDLLAVHKTQDVRNGQVVVARIDDEVTVKRLKKQGNKVELLPENSEFKPIVVDLRQQSFTIEGLAVGVIRNGDWLSKESVRNDRNKKKKEVPKPECSESYTLTPEVGELIEKVRKAHQETFPALCQLGKYTTNNSSEQRVSLDIDLWDKFSELSTKCIIKTVEFAKQLPGFTTLTIADQITLLKAACLDILILRICTRYTPEQDTMTFSDGLTLNRTQMHNAGFGPLTDLVFAFANQLLPLEMDDAETGLLSAICLICGDRQDLEQPDRVDMLQEPLLEALKVYVRKRRPSRPHMFPKMLMKITDLRSISAKGAERVITLKMEIPGSMPPLIQEMLENSEGLDTLSGQPGGGGRDGGGLAPPPGSCSPSLSPSSNRSSPATHSP
notes: domain: LexA DBD;domain: LBD
B3: LexA-human ERα-LBD (LexA fusion of the ligand binding domain of hERα) (receptor, UniProt P0A7C2 1-202, looked up)
chain: MKALTARQQEVFDLIRDHISQTGMPPTRAEIAQRLGFRSPNAAEEHLKALARKGVIEIVSGASRGIRLLQEEEEGLPLVGRVAAGEPLLAQQHIEGHYQVDPSLFKPNADFLLRVSGMSMKDIGIMDGDLLAVHKTQDVRNGQVVVARIDDEVTVKRLKKQGNKVELLPENSEFKPIVVDLRQQSFTIEGLAVGVIRNGDWLSAGDMRAANLWPSPLMIKRSKKNSLALSLTADQMVSALLDAEPPILYSEYDPTRPFSEASMMGLLTNLADRELVHMINWAKRVPGFVDLTLHDQVHLLECAWLEILMIGLVWRSMEHPGKLLFAPNLLLDRNQGKCVEGMVEIFDMLLATSSRFRMMNLQGEEFVCLKSIILLNSGVYTFLSSTLKSLEEKDHIHRVLDKITDTLIHLMAKAGLTLQQQHQRLAQLLLILSHIRHMSNKGMEHLYSMKCKNVVPLYDLLLEMLDAHRLHAPTSRGGASVEETDQSHLATAGSTSSHSLQKYYITGEAEGFPATV
notes: domain: LexA DBD;domain: LBD; also called hERa; ERa
B4: LexA-hPPARα LBD (LexA fusion of the ligand binding domain of hPPARα) (receptor, UniProt P0A7C2 1-202, looked up)
chain: MKALTARQQEVFDLIRDHISQTGMPPTRAEIAQRLGFRSPNAAEEHLKALARKGVIEIVSGASRGIRLLQEEEEGLPLVGRVAAGEPLLAQQHIEGHYQVDPSLFKPNADFLLRVSGMSMKDIGIMDGDLLAVHKTQDVRNGQVVVARIDDEVTVKRLKKQGNKVELLPENSEFKPIVVDLRQQSFTIEGLAVGVIRNGDWLSHNAIRFGRMPRSEKAKLKAEILTCEHDIEDSETADLKSLAKRIYEAYLKNFNMNKVKARVILSGKASNNPPFVIHDMETLCMAEKTLVAKLVANGIQNKEAEVRIFHCCQCTSVETVTELTEFAKAIPGFANLDLNDQVTLLKYGVYEAIFAMLSSVMNKDGMLVAYGNGFITREFLKSLRKPFCDIMEPKFDFAMKFNALELDDSDISLFVAAIICCGDRPGLLNVGHIEKMQEGIVHVLRLHLQSNHPDDIFLFPKLLQKMADLRQLVTEHAQLVQIIKKTESDAALHPLLQEIYRDMY
notes: domain: LexA DBD;domain: LBD
B5: LexA-hRXRα LBD (LexA fusion of the ligand binding domain of hRXRα) (receptor, UniProt P0A7C2 1-202, looked up)
chain: MKALTARQQEVFDLIRDHISQTGMPPTRAEIAQRLGFRSPNAAEEHLKALARKGVIEIVSGASRGIRLLQEEEEGLPLVGRVAAGEPLLAQQHIEGHYQVDPSLFKPNADFLLRVSGMSMKDIGIMDGDLLAVHKTQDVRNGQVVVARIDDEVTVKRLKKQGNKVELLPENSEFKPIVVDLRQQSFTIEGLAVGVIRNGDWLMGMKREAVQEERQRGKDRNENEVESTSSANEDMPVERILEAELAVEPKTETYVEANMGLNPSSPNDPVTNICQAADKQLFTLVEWAKRIPHFSELPLDDQVILLRAGWNELLIASFSHRSIAVKDGILLATGLHVHRNSAHSAGVGAIFDRVLTELVSKMRDMQMDKTELGCLRAIVLFNPDSKGLSNPAEVEALREKVYASLEAYCKHKYPEQPGRFAKLLLRLPALRSIGLKCLEHLFFFKLIGDTPIDTFLMEMLEAPHQMT
notes: domain: LexA DBD;domain: LBD
B6: LexA-cTRα LBD (LexA fusion of the ligand binding domain of cTRα) (receptor, UniProt P0A7C2 1-202, looked up)
chain: MKALTARQQEVFDLIRDHISQTGMPPTRAEIAQRLGFRSPNAAEEHLKALARKGVIEIVSGASRGIRLLQEEEEGLPLVGRVAAGEPLLAQQHIEGHYQVDPSLFKPNADFLLRVSGMSMKDIGIMDGDLLAVHKTQDVRNGQVVVARIDDEVTVKRLKKQGNKVELLPENSEFKPIVVDLRQQSFTIEGLAVGVIRNGDWLMDLVLDDSKRVAKRKLIEENRERRRKEEMIKSLQHRPSPSAEEWELIHVVTEAHRSTNAQGSHWKQKRKFLPEDIGQSPMASMPDGDKVDLEAFSEFTKIITPAITRVVDFAKKLPMFSELPCEDQIILLKGCCMEIMSLRAAVRYDPESETLTLSGEMAVKREQLKNGGLGVVSDAIFDLGKSLSAFNLDDTEVALLQAVLLMSSDRTGLICVDKIEKCQETYLLAFEHYINYRKHNIPHFWPKLLMKVTDLRMIGACHASRFLHMKVECPTELFPPLFLEVFEDQEV
notes: domain: LexA DBD;domain: LBD; also called cTRa
B7: LexA-hGR LBD (LexA fusion of the ligand binding domain of hGR) (receptor, UniProt P0A7C2 1-202, looked up)
chain: MKALTARQQEVFDLIRDHISQTGMPPTRAEIAQRLGFRSPNAAEEHLKALARKGVIEIVSGASRGIRLLQEEEEGLPLVGRVAAGEPLLAQQHIEGHYQVDPSLFKPNADFLLRVSGMSMKDIGIMDGDLLAVHKTQDVRNGQVVVARIDDEVTVKRLKKQGNKVELLPENSEFKPIVVDLRQQSFTIEGLAVGVIRNGDWLGMNLEARKTKKKIKGIQQATTGVSQETSENPGNKTIVPATLPQLTPTLVSLLEVIEPEVLYAGYDSSVPDSTWRIMTTLNMLGGRQVIAAVKWAKAIPGFRNLHLDDQMTLLQYSWMFLMAFALGWRSYRQSSANLLCFAPDLIINEQRMTLPCMYDQCKHMLYVSSELHRLQVSYEEYLCMKTLLLLSSVPKDGLKSQELFDEIRMTYIKELGKAIVKREGNSSQNWQRFYQLTKLLDSMHEVVENLLNYCFQTFLDKTMSIEFPEMLAEIITNQIPKYSNGNIKKLLFHQK
notes: domain: LexA DBD;domain: LBD

These binders were tested against Human NRC expressed from pEX-NRC in HeLa cells (human, UniProt Q14686 1-2063) (assay: cell-based or functional assay).
Sequence of Human NRC expressed from pEX-NRC in HeLa cells (Q14686 whole entry): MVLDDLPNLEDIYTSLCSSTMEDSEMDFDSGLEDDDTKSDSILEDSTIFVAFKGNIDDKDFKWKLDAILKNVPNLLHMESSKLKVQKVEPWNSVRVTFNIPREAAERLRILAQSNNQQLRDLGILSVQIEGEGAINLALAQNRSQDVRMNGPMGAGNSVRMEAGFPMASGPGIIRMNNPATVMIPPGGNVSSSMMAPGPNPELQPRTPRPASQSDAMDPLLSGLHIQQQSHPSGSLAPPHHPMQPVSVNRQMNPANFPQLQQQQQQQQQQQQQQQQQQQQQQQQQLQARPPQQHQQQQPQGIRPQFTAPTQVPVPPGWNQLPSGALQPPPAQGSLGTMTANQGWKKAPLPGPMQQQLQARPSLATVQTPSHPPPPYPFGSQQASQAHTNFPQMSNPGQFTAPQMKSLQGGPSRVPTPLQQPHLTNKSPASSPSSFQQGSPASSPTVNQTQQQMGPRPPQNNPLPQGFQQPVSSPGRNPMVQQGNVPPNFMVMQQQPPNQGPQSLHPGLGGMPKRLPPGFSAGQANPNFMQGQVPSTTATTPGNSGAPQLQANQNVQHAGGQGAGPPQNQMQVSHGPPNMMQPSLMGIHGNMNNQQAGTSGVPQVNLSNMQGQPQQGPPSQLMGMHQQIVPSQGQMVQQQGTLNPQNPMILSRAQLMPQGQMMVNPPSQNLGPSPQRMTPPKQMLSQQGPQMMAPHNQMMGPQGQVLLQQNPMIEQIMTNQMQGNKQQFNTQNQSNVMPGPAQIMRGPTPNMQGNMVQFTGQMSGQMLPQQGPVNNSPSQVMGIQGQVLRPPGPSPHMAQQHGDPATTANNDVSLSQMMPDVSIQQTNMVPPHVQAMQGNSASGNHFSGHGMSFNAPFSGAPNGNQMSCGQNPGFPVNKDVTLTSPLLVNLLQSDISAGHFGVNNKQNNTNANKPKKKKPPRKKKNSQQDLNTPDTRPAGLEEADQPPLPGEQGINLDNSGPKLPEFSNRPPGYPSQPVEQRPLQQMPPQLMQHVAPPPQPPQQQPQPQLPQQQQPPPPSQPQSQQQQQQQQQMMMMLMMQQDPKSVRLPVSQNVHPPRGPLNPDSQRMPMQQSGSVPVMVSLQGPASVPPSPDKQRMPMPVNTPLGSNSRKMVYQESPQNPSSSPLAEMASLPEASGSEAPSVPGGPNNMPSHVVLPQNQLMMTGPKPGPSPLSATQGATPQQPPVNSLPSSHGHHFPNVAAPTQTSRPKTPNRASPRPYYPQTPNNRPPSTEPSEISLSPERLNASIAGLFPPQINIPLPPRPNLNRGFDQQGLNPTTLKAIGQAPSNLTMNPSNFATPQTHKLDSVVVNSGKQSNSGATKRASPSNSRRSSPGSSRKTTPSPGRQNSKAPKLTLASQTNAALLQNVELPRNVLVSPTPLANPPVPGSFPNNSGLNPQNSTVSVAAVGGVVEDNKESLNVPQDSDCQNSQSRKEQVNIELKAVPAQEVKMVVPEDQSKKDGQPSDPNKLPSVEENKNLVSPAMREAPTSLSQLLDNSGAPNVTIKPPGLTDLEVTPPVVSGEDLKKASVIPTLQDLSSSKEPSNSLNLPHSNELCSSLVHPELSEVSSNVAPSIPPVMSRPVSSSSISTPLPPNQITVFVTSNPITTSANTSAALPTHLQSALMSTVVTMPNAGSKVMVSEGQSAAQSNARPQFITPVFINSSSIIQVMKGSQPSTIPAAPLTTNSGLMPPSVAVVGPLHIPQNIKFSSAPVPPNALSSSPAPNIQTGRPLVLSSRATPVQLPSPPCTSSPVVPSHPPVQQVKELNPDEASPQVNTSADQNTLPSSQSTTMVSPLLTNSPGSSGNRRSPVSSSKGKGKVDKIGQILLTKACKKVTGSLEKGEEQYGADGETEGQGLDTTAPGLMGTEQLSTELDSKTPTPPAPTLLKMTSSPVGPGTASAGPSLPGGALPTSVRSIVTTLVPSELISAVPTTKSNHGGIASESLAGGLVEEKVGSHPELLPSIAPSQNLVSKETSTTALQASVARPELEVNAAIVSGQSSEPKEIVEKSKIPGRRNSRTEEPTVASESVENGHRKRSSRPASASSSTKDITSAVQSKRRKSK

Binder	activity of the -73 collagenase-CAT reporter gene in HeLa cells (fold increase) [fold]
B1	12

These binders were tested against T1, B42-NIF-1 (full-length), B42 activation domain fusion expressed from pJG4-5 in yeast (human, UniProt Q9H4Z2 1-1342) (assay: yeast two-hybrid, B42-NIF-1 (full-length) against LexA-LBD, β-galactosidase).
T1 construct: also called NIF-1 expressed as a B42-fusion
T1 sequence: B1 chain
Protocol: To examine for this possibility, the interaction of B42-NIF-1 (full-length), conditionally expressed from pJG4-5, was studied with LexA fusions of nuclear receptor LBDs (cTRα, ERa, RXRα, GR, RARα, and PPARα) in yeast, as shown in FIG. 7. In addition, a LexA-fusion of full-length cTRα was also tested against B42-NIF-1 (full-length) and gave similar results as with the cTRα LBD. […] To document that the LexA-LBD fusions were expressed and responded to ligand in yeast, similar studies were carried out with B42-NRC.

Binder	binding result
B2	no binding
B3	no binding
B4	no binding
B5	no binding
B6	no binding
B7	no binding
